This data set concerns the molecule itself. In words: crystal structure.

B1: mouse Nudt12 catalytic domain (residues 126-462), E219A/E220A/E221A triple mutant (domain or fragment, UniProt Q9DCN1 126-462, looked up)
chain: LDRRSDKRNNSDWLQAKESHPTTVYLLFSDLNPLVTLGGNKESSQQPEVRLCQLNYPDVKGYLAQPEKITLVFLGVELEMRKGSPAQAGGVPEAAADGLVAWFALGIEPGAAEEFKQRHENCYFLHPPMPALLQLKEKEAGVVAQARSVLAWHSRYKFCPTCGSATKIEEGGYKRVCVRETCPSLQGVHNTSYPRVDPVVIMQVIHPDGTKCLLGRQKRFPPGMFTCLAGFIEPGETIEDAVRREVEEESGVKVGHVQYVSCQPWPMPSSLMIGCLAVAVSTEIKVDKNEIEDARWFTREQVVDVLTKGKQQAFFVPPSRAIAHQLIKHWVGMNPNL
The term stoichiometry N denotes the number of molecules, sites or subunits per partner or assembly. As to B1, the “stoichiometry N” value was determined as 2.
